Test results as given in patent publication US20140087995A1 (published 2014).
Numbered stars: 1 amine (or outer) side, 2 acyl side, 3 side chain; on linkers, the order of the positions; unused ones are H or OH. Bridge positions count the residues as written; N and C are the ends. Side chains are listed from the residue outwards. Ends that are not written are not given here. * marks the point of attachment. C20 diacid = O=C(O)CCCCCCCCCCCCCCCCCCC(=O)*; γGlu = O=C(O)[C@H](CCC(=O)[*:2])N[*:1]

T1: rat amylin receptor (rat calcitonin receptor + rat RAMP 3) (rat, UniProt P32214 25-516; Q9JJ73 23-147)
T1 construct: whole, on cells; Membranes prepared from transiently transfected BHK tk'ts 13 cells; also called rAmylin-R; rat amylin 3(a) receptor
T1 sequence (looked up) 1: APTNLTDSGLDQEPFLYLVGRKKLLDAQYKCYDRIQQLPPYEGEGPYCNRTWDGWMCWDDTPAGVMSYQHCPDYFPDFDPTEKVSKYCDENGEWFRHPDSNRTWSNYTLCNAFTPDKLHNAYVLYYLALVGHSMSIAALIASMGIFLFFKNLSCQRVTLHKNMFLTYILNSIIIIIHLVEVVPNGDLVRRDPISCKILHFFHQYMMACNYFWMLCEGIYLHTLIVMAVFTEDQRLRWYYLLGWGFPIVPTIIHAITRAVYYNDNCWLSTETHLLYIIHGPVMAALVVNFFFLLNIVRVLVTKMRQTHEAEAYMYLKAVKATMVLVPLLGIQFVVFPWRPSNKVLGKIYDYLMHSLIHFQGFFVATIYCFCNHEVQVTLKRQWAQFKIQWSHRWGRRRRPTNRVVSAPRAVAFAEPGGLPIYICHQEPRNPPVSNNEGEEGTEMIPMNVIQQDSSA
T1 sequence (looked up) 2: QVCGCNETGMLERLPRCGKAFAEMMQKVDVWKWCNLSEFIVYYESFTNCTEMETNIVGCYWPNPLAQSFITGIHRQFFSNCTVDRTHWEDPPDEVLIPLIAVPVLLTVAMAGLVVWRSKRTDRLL

T2: rat calcitonin receptor (rat, UniProt P32214 25-516)
T2 construct: whole, on cells; Membranes prepared from transiently transfected BHK tk'ts 13 cells; also called rCTR; rat calcitonin (a) receptor
T2 sequence (looked up): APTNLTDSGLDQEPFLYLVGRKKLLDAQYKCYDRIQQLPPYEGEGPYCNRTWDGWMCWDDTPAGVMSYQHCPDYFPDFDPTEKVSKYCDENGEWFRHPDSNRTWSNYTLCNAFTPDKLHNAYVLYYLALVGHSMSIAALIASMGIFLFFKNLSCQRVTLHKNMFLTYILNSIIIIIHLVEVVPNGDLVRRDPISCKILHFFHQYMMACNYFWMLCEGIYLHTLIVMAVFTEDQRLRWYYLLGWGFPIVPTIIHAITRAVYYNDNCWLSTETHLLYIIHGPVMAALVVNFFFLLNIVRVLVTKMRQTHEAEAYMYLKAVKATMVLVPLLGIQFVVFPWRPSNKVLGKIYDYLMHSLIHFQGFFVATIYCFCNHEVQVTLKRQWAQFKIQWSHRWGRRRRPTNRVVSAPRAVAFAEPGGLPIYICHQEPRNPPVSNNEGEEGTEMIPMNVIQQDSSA

T3: human calcitonin receptor (human, UniProt P30988 25-474)
T3 construct: whole, on cells; Membranes from stably transfected BHK cells; also called hCTR; hCT
T3 sequence (looked up): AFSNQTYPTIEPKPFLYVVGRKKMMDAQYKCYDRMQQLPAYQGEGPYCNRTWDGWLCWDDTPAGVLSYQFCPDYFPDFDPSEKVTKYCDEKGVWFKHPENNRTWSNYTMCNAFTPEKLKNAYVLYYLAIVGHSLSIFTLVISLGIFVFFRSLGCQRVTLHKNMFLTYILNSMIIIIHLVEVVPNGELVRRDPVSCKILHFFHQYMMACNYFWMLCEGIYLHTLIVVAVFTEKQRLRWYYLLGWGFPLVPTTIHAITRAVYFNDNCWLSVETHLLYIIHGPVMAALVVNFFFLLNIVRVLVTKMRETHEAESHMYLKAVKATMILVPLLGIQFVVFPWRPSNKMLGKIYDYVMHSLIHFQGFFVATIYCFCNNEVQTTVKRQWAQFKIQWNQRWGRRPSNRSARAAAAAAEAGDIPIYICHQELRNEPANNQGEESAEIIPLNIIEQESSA

B1: N^ε1-[(4S)-4-carboxy-4-[[(4S)-4-carboxy-4-(19-carboxynonadecanoylamino)butanoyl]amino]butanoyl]-[Glu14,Arg17,Pro21,Pro27,His34,Glu35]-h-amylin (peptide)
peptide: K([γGlu-γGlu-C20 diacid])CNTATCATQRLAEFLRHSSPNFGAIPSSTNVGHETY-NH2
modifications: disulfide 2-7; N-terminus assumed
SMILES: CC[C@H](C)[C@H](NC(=O)[C@H](C)NC(=O)CNC(=O)[C@H](Cc1ccccc1)NC(=O)[C@H](CC(N)=O)NC(=O)[C@@H]1CCCN1C(=O)[C@H](CO)NC(=O)[C@H](CO)NC(=O)[C@H](Cc1c[nH]cn1)NC(=O)[C@H](CCCNC(=N)N)NC(=O)[C@H](CC(C)C)NC(=O)[C@H](Cc1ccccc1)NC(=O)[C@H](CCC(=O)O)NC(=O)[C@H](C)NC(=O)[C@H](CC(C)C)NC(=O)[C@H](CCCNC(=N)N)NC(=O)[C@H](CCC(N)=O)NC(=O)[C@@H](NC(=O)[C@H](C)NC(=O)[C@@H]1CSSC[C@H](NC(=O)[C@@H](N)CCCCNC(=O)CC[C@H](NC(=O)CC[C@H](NC(=O)CCCCCCCCCCCCCCCCCCC(=O)O)C(=O)O)C(=O)O)C(=O)N[C@@H](CC(N)=O)C(=O)N[C@@H]([C@@H](C)O)C(=O)N[C@@H](C)C(=O)N[C@@H]([C@@H](C)O)C(=O)N1)[C@@H](C)O)C(=O)N1CCC[C@H]1C(=O)N[C@@H](CO)C(=O)N[C@@H](CO)C(=O)N[C@H](C(=O)N[C@@H](CC(N)=O)C(=O)N[C@H](C(=O)NCC(=O)N[C@@H](Cc1c[nH]cn1)C(=O)N[C@@H](CCC(=O)O)C(=O)N[C@H](C(=O)N[C@@H](Cc1ccc(O)cc1)C(N)=O)[C@@H](C)O)C(C)C)[C@@H](C)O
B2: N^ε1-[(4S)-4-carboxy-4-[[(4S)-4-carboxy-4-(19-carboxynonadecanoylamino)butanoyl]amino]butanoyl]-[Glu14,Arg17,Pro21,Pro27,Pro34,His35]-h-amylin (peptide)
peptide: K([γGlu-γGlu-C20 diacid])CNTATCATQRLAEFLRHSSPNFGAIPSSTNVGPHTY-NH2
modifications: disulfide 2-7 (inferred)
B3: N^ε1-[(4S)-4-carboxy-4-[[(4S)-4-carboxy-4-(19-carboxynonadecanoylamino)butanoyl]amino]butanoyl]-[Ser14,Arg17,Pro21,Pro27,Pro34,Glu35]-h-amylin (peptide)
peptide: K([γGlu-γGlu-C20 diacid])CNTATCATQRLASFLRHSSPNFGAIPSSTNVGPETY-NH2
modifications: disulfide 2-7; N-terminus assumed
SMILES: CC[C@H](C)[C@H](NC(=O)[C@H](C)NC(=O)CNC(=O)[C@H](Cc1ccccc1)NC(=O)[C@H](CC(N)=O)NC(=O)[C@@H]1CCCN1C(=O)[C@H](CO)NC(=O)[C@H](CO)NC(=O)[C@H](Cc1c[nH]cn1)NC(=O)[C@H](CCCNC(=N)N)NC(=O)[C@H](CC(C)C)NC(=O)[C@H](Cc1ccccc1)NC(=O)[C@H](CO)NC(=O)[C@H](C)NC(=O)[C@H](CC(C)C)NC(=O)[C@H](CCCNC(=N)N)NC(=O)[C@H](CCC(N)=O)NC(=O)[C@@H](NC(=O)[C@H](C)NC(=O)[C@@H]1CSSC[C@H](NC(=O)[C@@H](N)CCCCNC(=O)CC[C@H](NC(=O)CC[C@H](NC(=O)CCCCCCCCCCCCCCCCCCC(=O)O)C(=O)O)C(=O)O)C(=O)N[C@@H](CC(N)=O)C(=O)N[C@@H]([C@@H](C)O)C(=O)N[C@@H](C)C(=O)N[C@@H]([C@@H](C)O)C(=O)N1)[C@@H](C)O)C(=O)N1CCC[C@H]1C(=O)N[C@@H](CO)C(=O)N[C@@H](CO)C(=O)N[C@H](C(=O)N[C@@H](CC(N)=O)C(=O)N[C@H](C(=O)NCC(=O)N1CCC[C@H]1C(=O)N[C@@H](CCC(=O)O)C(=O)N[C@H](C(=O)N[C@@H](Cc1ccc(O)cc1)C(N)=O)[C@@H](C)O)C(C)C)[C@@H](C)O
notes: also called compound 120
B4: N^ε1-[(4S)-4-carboxy-4-[[(4S)-4-carboxy-4-(19-carboxynonadecanoylamino)butanoyl]amino]butanoyl]-[Glu14,Arg17,Pro21,Pro27,Pro34,Phe37]-h-amylin (peptide)
peptide: K([γGlu-γGlu-C20 diacid])CNTATCATQRLAEFLRHSSPNFGAIPSSTNVGPNTF-NH2
modifications: disulfide 2-7; N-terminus assumed
SMILES: CC[C@H](C)[C@H](NC(=O)[C@H](C)NC(=O)CNC(=O)[C@H](Cc1ccccc1)NC(=O)[C@H](CC(N)=O)NC(=O)[C@@H]1CCCN1C(=O)[C@H](CO)NC(=O)[C@H](CO)NC(=O)[C@H](Cc1c[nH]cn1)NC(=O)[C@H](CCCNC(=N)N)NC(=O)[C@H](CC(C)C)NC(=O)[C@H](Cc1ccccc1)NC(=O)[C@H](CCC(=O)O)NC(=O)[C@H](C)NC(=O)[C@H](CC(C)C)NC(=O)[C@H](CCCNC(=N)N)NC(=O)[C@H](CCC(N)=O)NC(=O)[C@@H](NC(=O)[C@H](C)NC(=O)[C@@H]1CSSC[C@H](NC(=O)[C@@H](N)CCCCNC(=O)CC[C@H](NC(=O)CC[C@H](NC(=O)CCCCCCCCCCCCCCCCCCC(=O)O)C(=O)O)C(=O)O)C(=O)N[C@@H](CC(N)=O)C(=O)N[C@@H]([C@@H](C)O)C(=O)N[C@@H](C)C(=O)N[C@@H]([C@@H](C)O)C(=O)N1)[C@@H](C)O)C(=O)N1CCC[C@H]1C(=O)N[C@@H](CO)C(=O)N[C@@H](CO)C(=O)N[C@H](C(=O)N[C@@H](CC(N)=O)C(=O)N[C@H](C(=O)NCC(=O)N1CCC[C@H]1C(=O)N[C@@H](CC(N)=O)C(=O)N[C@H](C(=O)N[C@@H](Cc1ccccc1)C(N)=O)[C@@H](C)O)C(C)C)[C@@H](C)O
B5: N^ε1-[(4S)-4-carboxy-4-[[(4S)-4-carboxy-4-(19-carboxynonadecanoylamino)butanoyl]amino]butanoyl]-[Glu14,Arg17,Pro21,Pro31,Pro34,Glu35]-h-amylin (peptide)
peptide: K([γGlu-γGlu-C20 diacid])CNTATCATQRLAEFLRHSSPNFGAILSSTPVGPETY-NH2
modifications: disulfide 2-7
B6: N^ε1-[(4S)-4-carboxy-4-[[(4S)-4-carboxy-4-(19-carboxynonadecanoylamino)butanoyl]amino]butanoyl]-[Glu14,Arg17,Pro21,Pro27,Pro34,Arg35]-h-amylin (peptide)
peptide: K([γGlu-γGlu-C20 diacid])CNTATCATQRLAEFLRHSSPNFGAIPSSTNVGPRTY-NH2
modifications: disulfide 2-7; N-terminus assumed
SMILES: CC[C@H](C)[C@H](NC(=O)[C@H](C)NC(=O)CNC(=O)[C@H](Cc1ccccc1)NC(=O)[C@H](CC(N)=O)NC(=O)[C@@H]1CCCN1C(=O)[C@H](CO)NC(=O)[C@H](CO)NC(=O)[C@H](Cc1c[nH]cn1)NC(=O)[C@H](CCCNC(=N)N)NC(=O)[C@H](CC(C)C)NC(=O)[C@H](Cc1ccccc1)NC(=O)[C@H](CCC(=O)O)NC(=O)[C@H](C)NC(=O)[C@H](CC(C)C)NC(=O)[C@H](CCCNC(=N)N)NC(=O)[C@H](CCC(N)=O)NC(=O)[C@@H](NC(=O)[C@H](C)NC(=O)[C@@H]1CSSC[C@H](NC(=O)[C@@H](N)CCCCNC(=O)CC[C@H](NC(=O)CC[C@H](NC(=O)CCCCCCCCCCCCCCCCCCC(=O)O)C(=O)O)C(=O)O)C(=O)N[C@@H](CC(N)=O)C(=O)N[C@@H]([C@@H](C)O)C(=O)N[C@@H](C)C(=O)N[C@@H]([C@@H](C)O)C(=O)N1)[C@@H](C)O)C(=O)N1CCC[C@H]1C(=O)N[C@@H](CO)C(=O)N[C@@H](CO)C(=O)N[C@H](C(=O)N[C@@H](CC(N)=O)C(=O)N[C@H](C(=O)NCC(=O)N1CCC[C@H]1C(=O)N[C@@H](CCCNC(=N)N)C(=O)N[C@H](C(=O)N[C@@H](Cc1ccc(O)cc1)C(N)=O)[C@@H](C)O)C(C)C)[C@@H](C)O
notes: also called compound 110

Key:
[1] = biological target: T1, rat amylin receptor (rat calcitonin …); assay: SPA competition vs 125I-rat amylin, membranes (Assay VI)
[2] = biological target: T2, rat calcitonin receptor; assay: SPA competition vs 125I-calcitonin, membranes (Assay VIII)
[3] = biological target: T2, rat calcitonin receptor; assay: ratio of IC50 on rat calcitonin receptor to IC50 on rat amylin receptor
[4] = biological target: T3, human calcitonin receptor; assay: ratio of IC50 on human calcitonin receptor to IC50 on human amylin receptor
In short: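 Membranes (35 ng/μL final) + SPA beads, 50 mM Hepes pH 7.4 buffer with 1 mM CaCl2, 5 mM MgCl₂, 0.1% OA, 0.02% Tween20; 120 min, 25° C, shaking; centrifuged, counted; IC₅₀ by one-site binding competition.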

| Binder | IC50 [1] [nM] | IC50 [2] [nM] | Ratio rCT/rAmylin binding [3] | Ratio hCT/hAmylin binding [4] |
| --- | --- | --- | --- | --- |
| B1 | 3.14 | 498 | 159 | 29.1 |
| B2 | 0.288 | 21 | 73 | 27.3 |
| B3 | 0.161 | 140 | 868 | 45.3 |
| B4 | 0.205 | 23.4 | 114 | 18 |
| B5 | 0.449 | 33.5 | 74.7 | 22.6 |
| B6 | 0.339 | 38.3 | 113 | 53.6 |
